From patent US20170298096A1 (CANIMGUIDE THERAPEUTICS, published 2017) come the findings set out here.

No end group written: not given here.

T1: His-tagged P3028 (human, also: His-tag, terminus and sequence not given here)
T1 construct: used in solution in the PEPSCAN (rampo) ELISA; also called PGE73; His-tag-P3028; not shown: His tag
T1 peptide: VFDEFKPLVEEPQNLIK

This experiment addresses T1, His-tagged P3028. In words: PEPSCAN ELISA (rampo). (In general: ELISA stands for enzyme-linked immunosorbent assay.)
Description: After washing, the peroxidase substrate 2,2′-azine-di-3-ethylbenzthiazoline sulfonate (ABTS) and 2 μL of 3% H2O2 were added. The binding capacity of the mAb was measured as a color development at 405 nm (optical density, OD405). The color development was quantified with a charge-coupled device (CCD)—camera and an image processing system.
The OD405-values obtained by a CCD-camera was considered as raw data values (“rampo values,” “rampo units,” or “rampo scores”). […] First the CCD-camera made a picture of the card before peroxidase coloring and then again a picture after the peroxidase coloring. […] These values were copied into an excel file and labeled as a raw data file. One follow-up manipulation was allowed. Sometimes a well can contain an air-bubble resulting in a false-positive value. If manual inspection of the cards detect an air-bubble the value are set to 0 for that well.
In the case of KKLDTPFVKLSLFTER [SEQ ID NO 317], the “rampo score relative to the P28R control sample” value is ≥ 98 % of P28R control. KKLDTFFVKLSSFTER [SEQ ID NO 357]: the “rampo score relative to the P28R control sample” value is ≥ 98 % of P28R control. Still for that read-out and setting: the result for KKLDTFFVKLQLFTER [SEQ ID NO 348] reads ≥ 98 % of P28R control; that for KKLDTFFVKLSHFTER [SEQ ID NO 351], ≥ 98 % of P28R control. As to KKLDTFFVKLHLFTER [SEQ ID NO 345], the “rampo score relative to the P28R control sample” value was ≥ 98 % of P28R control. On the same count and under the same terms, the result for KKLDTFFVKLSLTTER [SEQ ID NO 373] reads ≥ 98 % of P28R control; that for KKLDTFFVKYSLFTER [SEQ ID NO 344], ≥ 98 % of P28R control. Regarding KKLDTFFVKLSLITER [SEQ ID NO 365], the “rampo score relative to the P28R control sample” value is ≥ 98 % of P28R control. Same read-out and setting: the result for KKLDTFTVKLSLFTER [SEQ ID NO 324] reads ≥ 98 % of P28R control; that for KKLDTFFVKGSLFTER [SEQ ID NO 334], ≥ 98 % of P28R control; that for KKLDTFFVKRSLFTER [SEQ ID NO 340], ≥ 98 % of P28R control. The same measure, in the same setting: the result for KKLDTFFVKLSAFTER [SEQ ID NO 350] reads ≥ 98 % of P28R control.

In the case of KKLDTFFGKLSLFTER (also called P28R with G at position 8) [SEQ ID NO 327], the RAMPO Score was at least 302 rampo units and the “rampo score relative to the P28R control sample” value was ≥ 98 % of P28R control. Take KKLDTFFVKLSLCTER [SEQ ID NO 362]: the “rampo score relative to the P28R control sample” value is ≥ 98 % of P28R control.

As for KKLDTFFVKQSLFTER [SEQ ID NO 339], the “rampo score relative to the P28R control sample” value is ≥ 98 % of P28R control. Still for that read-out and setting: the result for KKLDTFFVKTSLFTER [SEQ ID NO 342] reads ≥ 98 % of P28R control; that for KKLDTFLVKLSLFTER [SEQ ID NO 320], ≥ 98 % of P28R control.

Consider KKLDTFFVKNSLFTER [SEQ ID NO 337], for which the “rampo score relative to the P28R control sample” value is ≥ 98 % of P28R control. The same measure, in the same setting: the result for KKLDTFFVKLTLFTER [SEQ ID NO 349] reads ≥ 98 % of P28R control; that for KKLDTFFVKLSLRTER [SEQ ID NO 371], ≥ 98 % of P28R control. Still for that read-out and setting: the result for KKLDTFFVKLSRFTER [SEQ ID NO 356] reads ≥ 98 % of P28R control; that for KKLDTFFVKASLFTER [SEQ ID NO 332], ≥ 98 % of P28R control; that for KKLDTFFVKLSVFTER [SEQ ID NO 359], ≥ 98 % of P28R control. On the same count and under the same terms, the result for KKLDTFFVRLSLFTER [SEQ ID NO 331] reads ≥ 98 % of P28R control; that for KKLDTFFVKLSLSTER [SEQ ID NO 372], ≥ 98 % of P28R control. For KKLDTFFVKLSLNTER [SEQ ID NO 368], the “rampo score relative to the P28R control sample” value was ≥ 98 % of P28R control.

Take KKLDTFFVKLSIFTER [SEQ ID NO 352]: the “rampo score relative to the P28R control sample” value is ≥ 98 % of P28R control. For the molecule KKLDTFFFKLSLFTER (also called P28R with F at position 8) [SEQ ID NO 326], the RAMPO Score was at least 302 rampo units and the “rampo score relative to the P28R control sample” value was ≥ 98 % of P28R control.

Regarding KKLDTFFVKLSQFTER [SEQ ID NO 355], the “rampo score relative to the P28R control sample” value was ≥ 98 % of P28R control. The same measure, in the same setting: the result for KKLDTFFVKLSNFTER [SEQ ID NO 354] reads ≥ 98 % of P28R control.

Regarding KKLDTFVVKLSLFTER [SEQ ID NO 325], the “rampo score relative to the P28R control sample” value is ≥ 98 % of P28R control.

Consider KKLDTFFVKLSLVTER [SEQ ID NO 374], for which the “rampo score relative to the P28R control sample” value is ≥ 98 % of P28R control. The same measure, in the same setting: the result for KKLDTFFVKLSLGTER [SEQ ID NO 363] reads ≥ 98 % of P28R control; that for KKLDTFFVKISLFTER [SEQ ID NO 335], ≥ 98 % of P28R control.

On to KKLDTFFVKLSLMTER [SEQ ID NO 367], for which the “rampo score relative to the P28R control sample” value was ≥ 98 % of P28R control.

In the case of KKLDTTFVKLSLFTER [SEQ ID NO 318], the “rampo score relative to the P28R control sample” value was ≥ 98 % of P28R control.

Turning to KKLDTFFVKLSTFTER [SEQ ID NO 358], the “rampo score relative to the P28R control sample” value is ≥ 98 % of P28R control. KKLDTFSVKLSLFTER [SEQ ID NO 323]: the “rampo score relative to the P28R control sample” value is ≥ 98 % of P28R control. Turning to KKLDTFFPKLSLFTER (also called P28R with P at position 8) [SEQ ID NO 329], the RAMPO Score was at least 302 rampo units and the “rampo score relative to the P28R control sample” value was ≥ 98 % of P28R control. In the case of KKLDTFFVKFSLFTER [SEQ ID NO 333], the “rampo score relative to the P28R control sample” value was ≥ 98 % of P28R control. Same read-out and setting: the result for KKLDTFFVKLSLLTER [SEQ ID NO 366] reads ≥ 98 % of P28R control. For KKLDTFFLKLSLFTER (also called P28R with L at position 8) [SEQ ID NO 328], the RAMPO Score was at least 302 rampo units and the “rampo score relative to the P28R control sample” value is ≥ 98 % of P28R control. The like results for KKLDTFFRKLSLFTER (also called P28R with R at position 8) [SEQ ID NO 330] were, in that order, at least 302 rampo units and ≥ 98 % of P28R control. In the case of KKLDTFFVKLSLPTER [SEQ ID NO 369], the “rampo score relative to the P28R control sample” value was ≥ 98 % of P28R control. Same read-out and setting: the result for KKLDTFFVKSSLFTER [SEQ ID NO 341] reads ≥ 98 % of P28R control. Same read-out and setting: the result for KKLDTFFVKLMLFTER [SEQ ID NO 346] reads ≥ 98 % of P28R control. On the same count and under the same terms, the result for KKLDTVFVKLSLFTER [SEQ ID NO 319] reads ≥ 98 % of P28R control; that for KKLDTFFVKMSLFTER [SEQ ID NO 336], ≥ 98 % of P28R control; that for KKLDTFFVKLSMFTER [SEQ ID NO 353], ≥ 98 % of P28R control. For KKLDTFQVKLSLFTER [SEQ ID NO 322], the “rampo score relative to the P28R control sample” value is ≥ 98 % of P28R control. Still for that read-out and setting: the result for KKLDTFFVKLNLFTER [SEQ ID NO 347] reads ≥ 98 % of P28R control; that for KKLDTFFVKLSWFTER [SEQ ID NO 360], ≥ 98 % of P28R control. Same read-out and setting: the result for KKLDTFFVKLSLQTER [SEQ ID NO 370] reads ≥ 98 % of P28R control. Still for that read-out and setting: the result for KKLDTFFVKLSLHTER [SEQ ID NO 364] reads ≥ 98 % of P28R control; that for KKLDTFFVKLSLATER [SEQ ID NO 361], ≥ 98 % of P28R control; that for KKLDTFFVKPSLFTER [SEQ ID NO 338], ≥ 98 % of P28R control. For KKLDTFMVKLSLFTER [SEQ ID NO 321], the “rampo score relative to the P28R control sample” value was ≥ 98 % of P28R control. Still for that read-out and setting: the result for KKLDTFFVKVSLFTER [SEQ ID NO 343] reads ≥ 98 % of P28R control.
